Results from patent publication US8357523B2, “Beta-glucosidase variant enzymes and related polynucleotides” (Codexis, Inc., priority 2009, dated 2013).

Assay: High throughput cellobiose assay: fold improvement in cellobiase activity of CelA variants over a control enzyme (Tables 2A-2D, 3, 5, 6, 7)
Type: biochemical
Conditions: 3.3 g/l cellobiose, 55° C. and pH 6.0

Molecule	Fold improvement over Control Variant No. 5 from Table 2A
141 (protein) STAIAQEGAAPAAILHPEKWPRPATQRLIDPAVEKRVDALLKQLSVEEKVGQVIQGDIGTITPEDLRKYPLGSILAGGNSGPNGDDRAPPKEWLDLADAFYRVSLEKRPGHTPIPVLFGIDAVHGHGNIGSATIFPHNIALGMTRDPELLRRIGEVTAVEMAATGIDWTFAPALSVVRDDRWGRTYEGFSEDPEIVAAYSAAIVEGVQGKYGSKDFMAVGRIVACAKHFLADGGTDQGRDQGDARISEDELIRIHNAGYPPAIDAGVLTVMASFSSWQGIKHHGHKQLLTDVLKGQMGFNGFIVGDWNAHDQVPGCTKFNCPTSLIAGLDMYMAADSWKQLYENTLAQVKDGTIPMARLDDAVRRILRVKVLAGLFEKPAPKDRPGLPGLETLGSPEHRAVGREAVRKSLVLLKNDKGTLPLSPKARVLVAGDGADNIGKQSGGWTISWQGTGNRNDEFPGATSILGGIRDAVADAGGSVEFDVAGQYKTKPDVAIVVFGEEPYAEFQGDVETLEYQPDQKQDLALLKKLKDQGIPVVAVFLSGRPMWVNPELNASDAFVAAWLPGTEGGGVADVLFTDKAGKVQHDFAGKLSYSWPRTAAQTTVNRGDADYNPLFAYGYGLTYKDKSKVGTLPEESGVPAEARQNAGIYFRAGALRLPGRFL	+++ (+++ = 6 to 13 fold improvement over control Variant No. 2)
145 (protein) STAIAQEGAAPAAILHPEKWPRPATQRLIDPAVEKRVDALLKQLSVEEKVGQVIQGDIGTITPEDLRKYPLGSILAGGDSGPNGDDRAPPKEWLDLADAFYRVSLEKRPGHTPIPVLFGIDAVHGHGNIGSATIFPHNIALGATRSPELLRRIGEVTAEEMAATGIDWTFAPALSVVRDDRWGRTYEGFSEDPEIVASYSAAIVEGVQGKYGSKDFMAPGRIVACAKHFLADGGTDQGRDQGDARISEDELIRIHNAGYPPAIDAGVLTVMASFSSWQGIKHHGHKQLLTDVLKGQMGFNGFIVGDWNAHDQVPGCTKFNCPTSLIAGLDMYMAADSWKQLYENTLAQVKDGTIPMARLDDAVRRILRVKVLAGLFEKPAPKDRPGLPGLETLGSPEHRAVGREAVRKSLVLLKNDKGTLPLSPKARVLVAGDGADNIGKQSGGWTISWQGTGNRNDEFPGATSILGGIRDAVADAGGSVEFDVAGQYKTKPDVAIVVFGEEPYAEFQGDVETLEYQPDQKQDLALLKKLKDQGIPVVAVFLSGRPMWVNPELNASDAFVAAWLPGTEGGGVADVLFTDKAGKVQHDFAGKLSYSWPRTAAQTTVNRGDADYNPLFAYGYGLTYKDKSKVGTLPEESGVPAEARQNAGIYFRAGALRLPGRFL	+++ (+++ = 6 to 13 fold improvement over control Variant No. 2)
142 (protein) STAIAQEGAAPAAILHPEKWPRPATQRLIDPAVEKRVDALLKQLSVEEKVGQVIQGDIGTITPEDLRKYPLGSILAGGDSGPNGDDRAPPKEWLDLADAFYRVSLEKRPGHTPIPVLFGIDAVHGHGKIGSATIFPHNIALGATRDPELLRRIGEVTAVEMAATGIDWTFAPALSVVRDDRWGRTYEGFSEDPEIVAAYSPAIVEGVQGKFGSKDFMAVGRIVASAKHFLADGGTDQGRDQGDARISEDELIRIHNAGYPPAIDAGVLTVMASFSSWQGIKHHGHKQLLTDVLKGQMGFNGFIVGDWNAHDQVPGCTKFNCPTSLIAGLDMYMAADSWKQLYENTLAQVKDGTIPMARLDDAVRRILRVKVLAGLFEKPAPKDRPGLPGLETLGSPEHRAVGREAVRKSLVLLKNDKGTLPLSPKARVLVAGDGADNIGKQSGGWTISWQGTGNRNDEFPGATSILGGIRDAVADAGGSVEFDVAGQYKTRPDVAIVVFGEEPYAEFQGDVETLEYQPDQKQDLALLKKLKDQGIPVVAVFLSGRPMWVNPELNASDAFVAAWLPGTEGGGVADVLFTDKAGKVQHDFAGKLSYSWPRTAAQTTVNRGDADYNPLFAYGYGLTYKDKSKVGTLPEESGVPAEARQNAGIYFRAGALRLPGRFL	+++ (+++ = 6 to 13 fold improvement over control Variant No. 2)
143 (protein) STAIAQEGAAPAAILHPEKWPRPATQRLIDPAVEKRVDALLKQLSVEEKVGQVIQGDIGTITPEDLRKYPLGSILAGGNSGPNGDDRAPPKEWLDLADAFYRVSLEKRPGHTPIPVLFGIDAVHGHGNIGSATIFPHNIALGMTRDPELLRRIGEVTAVEMAATGIDWTFAPALSVVRDDRWGRTYEGFSEDPEIVASYSAAIVEGVQGKYGSKDFMAPGRIVACAKHFLADGGTDQGRDQGDARISEDELIRIHNAGYPPAIDAGVLTVMASFSSWQGIKHHGHKQLLTDVLKGQMGFNGFIVGDWNAHDQVPGCTKFNCPTSLIAGLDMYMAADSWKQLYENTLAQVKDGTIPMARLDDAVRRILRVKVLAGLFEKPAPKDRPGLPGLETLGSPEHRAVGREAVRKSLVLLKNDKGTLPLSPKARVLVAGDGADNIGKQSGGWTISWQGTGNRNDEFPGATSILGGIRDAVADAGGSVEFDVAGQYKTKPDVAIVVFGEEPYAEFQGDVETLEYQPDQKQDLALLKKLKDQGIPVVAVFLSGRPMWVNPELNASDAFVAAWLPGTEGGGVADVLFTDKAGKVQHDFAGKLSYSWPRTAAQTTVNRGDADYNPLFAYGYGLTYKDKSKVGTLPEESGVPAEARQNAGIYFRAGALRLPGRFL	+++ (+++ = 6 to 13 fold improvement over control Variant No. 2)
148 (protein) STAIAQEGAAPAAILHPEKWPRPATQRLIDPAVEKRVDALLKQLSVEEKVGQVIQGDIGTITPEDLRKYPLGSILAGGDSGPNGDDRAPPKEWLDLADAFYRVSLEKRPGHTPIPVLFGIDAVHGHGNIGSATIFPHNIALGATRDPELLRRIGEVTAEEMAATGIDWTFAPALSVVRDDRWGRTYEGFSEDPEIVASYSAAIVEGVQGKFGSKDFMAPGRIVACAKHFLADGGTDQGRDQGDARISEDELIRIHNAGYPPAIDAGVLTVMASFSSWQGIKHHGHKQLLTDVLKGQMGFNGFIVGDWNAHDQVPGCTKFNCPTSLIAGLDMYMAADSWKQLYENTLAQVKDGTIPMARLDDAVRRILRVKVLAGLFEKPAPKDRPGLPGLETLGSPEHRAVGREAVRKSLVLLKNDKGTLPLSPKARVLVAGDGADNIGKQSGGWTISWQGTGNRNDEFPGATSILGGIRDAVADAGGSVEFDVAGQYKTKPDVAIVVFGEEPYAEFQGDVETLEYQPDQKQDLALLKKLKDQGIPVVAVFLSGRPMWVNPELNASDAFVAAWLPGTEGGGVADVLFTDKAGKVQHDFAGKLSYSWPRTAAQTTVNRGDADYNPLFAYGYGLTYKDKSKVGTLPEESGVPAEARQNAGIYFRAGALRLPGRFL	+++ (+++ = 6 to 13 fold improvement over control Variant No. 2)
147 (protein) STAIAQEGAAPAAILHPEKWPRPATQRLIDPAVEKRVDALLKQLSVEEKVGQVIQGDIGTITPEDLRKYPLGSILAGGDSGPNGDDRAPPKEWLDLADAFYRVSLEKRPGHTPIPVLFGIDAVHGHGKIGSATIFPHNIALGATRDPELLRRIGEVTAVEMAATGIDWTFAPCLSVVRDDRWGRTYEGFSEDPEIVASYSAAIVEGVQGKYGSKDFMAPGRSVASAKHFLADGGTDQGRDQGDARISEDELIRIHNAGYPPAIDAGVLTVMASFSSWQGIKHHGHKQLLTDVLKGQMGFNGFIVGDWNAHDQVPGCTKFNCPTSLIAGLDMYMAADSWKQLYENTLAQVKDGTIPMARLDDAVRRILRVKVLAGLFEKPAPKDRPGLPGLETLGSPEHRAVGREAVRKSLVLLKNDKGTLPLSPKARVLVAGDGADNIGKQSGGWTISWQGTGNRNDEFPGATSILGGIRDAVADAGGSVEFDVAGQYKTKPDVAIVVFGEEPYAEFQGDVETLEYQPDQKQDLALLKKLKDQGIPVVAVFLSGRPMWVNPELNASDAFVAAWLPGTEGGGVADVLFTDKAGKVQHDFAGKLSYSWPRTAAQTTVNRGDADYNPLFAYGYGLTYKDKSKVGTLPEESGVPAEARQNAGIYFRAGALRLPGRFL	+++ (+++ = 6 to 13 fold improvement over control Variant No. 2)
146 (protein) STAIAQEGAAPAAILHPEKWPRPATQRLIDPAVEKRVDALLKQLSVEEKVGQVIQGDIGTITPEDLRKYPLGSILAGGDSGPNGDDRAPPKEWLDLADAFYRVSLEKRPGHTPIPVLFGIDAVHGHGNIGSATIFPHNIALGMTRDPELLRRIGEVTAQEMAATGIDWTFAPALSVVRDDRWGRTYEGFSEDPEIVAAYSPAIVEGVQGKFGSKDFMAPGRIVACAKHFLADGGTDQGRDQGDARISEDELIRIHNAGYPPAIDAGVLTVMASFSSWQGIKHHGHKQLLTDVLKGQMGFNGFIVGDWNAHDQVPGCTKFNCPTSLIAGLDMYMAADSWKQLYENTLAQVKDGTIPMARLDDAVRRILRVKVLAGLFERPAPKDRPGLPGLETLGSPEHRAVGREAVRKSLVLLKNDKGTLPLSPKARVLVAGDGADNIGKQSGGWTISWQGTGNRNDEFPGATSILGGIRDAVADAGGSVEFDVAGQYKTKPDVAIVVFGEEPYAEFQGDVETLEYQPDQKQDLALLKKLKDQGIPVVAVFLSGRPMWVNPELNASDAFVAAWLPGTEGGGVADVLFTDKAGKVQHDFAGKLSYSWPRTAAQTTVNRGDADYNPLFAYGYGLTYKDKSKVGTLPEESGVPAEARQNAGIYFRAGALRLPGRFL	+++ (+++ = 6 to 13 fold improvement over control Variant No. 2)
144 (protein) STAIAQEGAAPAAILHPEKWPRPATQRLIDPAVEKRVDALLKQLSVEEKVGQVIQGDIGTITPEDLRKYPLGSILAGGNSGPNGDDRAPPKEWLDLADAFYRVSLEKRPGHTPIPVLFGIDAVHGHGKIGSATIFPHNIALGATRDPELLRRIGEVTAVEMTATGIDWTFAPALSVVRDDRWGRTYEGFSEDPEIVASYSAAIVEGVQGKYGSKDFMAVGRIVACAKHFLADGGTDQGRDQGDARISEDELIRIHNAGYPPAIDAGVLTVMASFSSWQGIKHHGHKQLLTDVLKGQMGFNGFIVGDWNAHDQVPGCTKFNCPTSLIAGLDMYMAADSWKQLYENTLAQVKDGTIPMARLDDAVRRILRVKVLAGLFEKPAPKDRPGLPGLETLGSPEHRAVGREAVRKSLVLLKNDKGTLPLSPKARVLVAGDGADNIGKQSGGWTISWQGTGNRNDEFPGATSILGGIRDAVADAGGSVEFDVAGQYKTKPDVAIVVFGEEPYAEFQGDVETLEYQPDQKQDLALLKKLKDQGIPVVAVFLSGRPMWVNPELNASDAFVAAWLPGTEGGGVADVLFTDKAGKVQHDFAGKLSYSWPRTAAQTTVNRGDADYNPLFAYGYGLTYKDKSKVGTLPEESGVPAEARQNAGIYFRAGALRLPGRFL	+++ (+++ = 6 to 13 fold improvement over control Variant No. 2)
